B1: DLC1 (parent)
chain: NDDSADYQHFLQDCVDGLFKEVKE
B2: TRIM29 (parent)
chain: FAEKGELRKSIFSESRKPTVSIME

Variants of: B1
Assay: protein stability index of a GFP-peptide fusion (GPS, HEK-293T) (PSI 1-6); higher = more stable
Settings: c terminus: a fixed tail appended
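Further: lentivirally expressed fusions sorted by FACS into six bins by GFP to DsRed ratio, PSI derived from sequencing read proportions per bin multiplied by bin number.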

Variant	protein stability index
NDDSADYQHFLQDCVDGLFKEVKD [E24D]	2.33
NDDSADYQHFLQDCVDGLFKEVKG [E24G]	3.66
NDDSADYQHFLQDCADGLFKEVKE [V15A]	4.04
NDDSADYQHFLQDCHDGLFKEVKE [V15H]	4.94
NDDSADYQHFLQDCVDGRFKEVKE [L18R]	4.58
NDDSADYQHFLQDCVDGHFKEVKE [L18H]	5.37
NDDSADYQHFLQDCVDGLPKEVKE [F19P]	5.17
NDDSADYPHFLQDCVDGLFKEVKE [Q8P]	2.64
NDDSADYGHFLQDCVDGLFKEVKE [Q8G]	2.75
NDDIADYQHFLQDCVDGLFKEVKE [S4I]	2
NDDSAWYQHFLQDCVDGLFKEVKE [D6W]	2.52
NDDSAIYQHFLQDCVDGLFKEVKE [D6I]	2.32
NDDSADYQHFLMDCVDGLFKEVKE [Q12M]	3.73
NDWSADYQHFLQDCVDGLFKEVKE [D3W]	1.71
NDFSADYQHFLQDCVDGLFKEVKE [D3F]	3.3
NDDSADYQHFLQDCVDGLFKEPKE [V22P]	4.26
NDDSADYQHFLQGCVDGLFKEVKE [D13G]	2.42
NDDSADYQHFLQQCVDGLFKEVKE [D13Q]	2.24
NDDSADYQHFLQYCVDGLFKEVKE [D13Y]	2.14
NDDSADYQHFLQRCVDGLFKEVKE [D13R]	2.02
NDDSADYQHFLQKCVDGLFKEVKE [D13K]	2.05
NDDSADYQHFLQICVDGLFKEVKE [D13I]	1.84
NDDSWDYQHFLQDCVDGLFKEVKE [A5W]	2.1
NDDSADYQHFKQDCVDGLFKEVKE [L11K]	5.08

Variant	protein stability index
NDDSADYQHFEQDCVDGLFKEVKE [L11E]	5.25
NDDSADYQHFVQDCVDGLFKEVKE [L11V]	4.18
NDDSADYQHFWQDCVDGLFKEVKE [L11W]	3.78
NWDSADYQHFLQDCVDGLFKEVKE [D2W]	2.15
NDDSADYQVFLQDCVDGLFKEVKE [H9V]	1.92
NDDSADYQTFLQDCVDGLFKEVKE [H9T]	2.25
NDDSADYQHFLQDCVDGLFLEVKE [K20L]	2.87
NDDSADYQHFLQDCVDGLFREVKE [K20R]	2.51
NDDSADYQHFLQDCVDGLFQEVKE [K20Q]	3.23
NDDSADYQHFLQDWVDGLFKEVKE [C14W]	4.31
NDDSADYQHFLQDGVDGLFKEVKE [C14G]	4.86
NDDSADYQHFLQDIVDGLFKEVKE [C14I]	2.41
NDDSADPQHFLQDCVDGLFKEVKE [Y7P]	4.62
NDDSADCQHFLQDCVDGLFKEVKE [Y7C]	2.55
NDDSADYQHFLQDCVDGLFKDVKE [E21D]	4.67
NDDSADYQHFLQDCVDGLFKPVKE [E21P]	3.94
NDDSADYQHFLQDCVDGLFKFVKE [E21F]	2.51
EDDSADYQHFLQDCVDGLFKEVKE [N1E]	3
IDDSADYQHFLQDCVDGLFKEVKE [N1I]	1.59
NDDSADYQHCLQDCVDGLFKEVKE [F10C]	2.66
NDDSADYQHFLQDCVDFLFKEVKE [G17F]	2.12
NDDSADYQHFLQDCVDNLFKEVKE [G17N]	2.39
NDDSADYQHFLQDCVDWLFKEVKE [G17W]	2.43

Variants of: B2
Assay: as above
Settings: c terminus: a fixed tail appended

Variant	protein stability index
FAEKGELRKSIFSESRKPGVSIME [T19G]	1.61
FAEKGELRKSIFSESRKPIVSIME [T19I]	1.17
FAEKGELRKSIFSESRKPFVSIME [T19F]	1.59
FAEKGELRKSIFSESRKPEVSIME [T19E]	1.8
FAEKGELRKSIFSESRKPPVSIME [T19P]	2.39
FAEKGELRKSIFSESRKPNVSIME [T19N]	1.72
FAEKGELRKSIFSESRKPRVSIME [T19R]	2.02
FAEKGELRKSIFSESRKPYVSIME [T19Y]	2
FAEKGELRKSIFSESRKPAVSIME [T19A]	3
FAEKGELRKSIFSESRKPVVSIME [T19V]	2.56
FAEKGELRKSIFSESRKPSVSIME [T19S]	2.74
FAEKGELRKSIFSESRKPLVSIME [T19L]	1.6
FAEKGELRKSIFSESRKPKVSIME [T19K]	2.58
FAEKGELRKSIFSESRKPCVSIME [T19C]	2.39
FAEKGELRKSIFSESRKPWVSIME [T19W]	2.94
FAEKGELRKSIFSESRKPQVSIME [T19Q]	2.26
FAEKGELRKSIFSESRKPDVSIME [T19D]	2.15
FAEKGELRKSIFSESRKPMVSIME [T19M]	2.36
FAEKGELRKSIFSESRKPHVSIME [T19H]	1.75
FAEKGELRKSIFSESRKPTLSIME [V20L]	1.23
FAEKGELRKSIFSESRKPTRSIME [V20R]	1.68
FAEKGELRKSIFSESRKPTESIME [V20E]	2.79
FAEKGELRKSIFSESRKPTWSIME [V20W]	2.58
FAEKGELRKSIFSESRKPTMSIME [V20M]	1.92

Variant	protein stability index
FAEKGELRKSIFSESRKPTSSIME [V20S]	2.34
FAEKGELRKSIFSESRKPTYSIME [V20Y]	1.67
FAEKGELRKSIFSESRKPTASIME [V20A]	1.42
FAEKGELRKSIFSESRKPTNSIME [V20N]	1.27
FAEKGELRKSIFSESRKPTCSIME [V20C]	2.13
FAEKGELRKSIFSESRKPTKSIME [V20K]	2.08
FAEKGELRKSIFSESRKPTDSIME [V20D]	2.02
FAEKGELRKSIFSESRKPTFSIME [V20F]	1.97
FAEKGELRKSIFSESRKPTISIME [V20I]	2.12
FAEKGELRKSIFSESRKPTTSIME [V20T]	1.77
FAEKGELRKSIFSESRKPTGSIME [V20G]	1.7
FAEKGELRKSIFSESRKPTQSIME [V20Q]	2.2
FAEKGELRKSIFSESRKPTHSIME [V20H]	2.64
FAEKGELRKSIFSESRKPTPSIME [V20P]	1.89
FAEKGELRKSIFSESRRPTVSIME [K17R]	1.53
FAEKGELRKSIFSESRPPTVSIME [K17P]	1.54
FAEKGELRKSIFSESRSPTVSIME [K17S]	1.82
FAEKGELRKSIFSESRTPTVSIME [K17T]	2.12
FAEKGELRKSIFSESRVPTVSIME [K17V]	2.46
FAEKGELRKSIFSESRQPTVSIME [K17Q]	1.68
FAEKGELRKSIFSESRYPTVSIME [K17Y]	2.23
FAEKGELRKSIFSESRWPTVSIME [K17W]	2.22
FAEKGELRKSIFSESRKDTVSIME [P18D]	2.32
FAEKGELRKSIFSESRKATVSIME [P18A]	2.01

Variant	protein stability index
FAEKGELRKSIFSESRKVTVSIME [P18V]	2.5
FAEKGELRKSIFSESRKMTVSIME [P18M]	2.1
FAEKGELRKSIFSESRKNTVSIME [P18N]	2.59
FAEKGELRKSIFSESRKQTVSIME [P18Q]	1.34
FAEKGELRKSIFSESRKTTVSIME [P18T]	1.85
FAEKGELRKSIFSESRKWTVSIME [P18W]	2.83
FAEKGELRKSIFSESRKGTVSIME [P18G]	2.59
FAEKGELRKSIFSESRKETVSIME [P18E]	2.35
FAEKGELRKSIFSESRKSTVSIME [P18S]	1.46
FAEKGELRKSIFSESRKLTVSIME [P18L]	1.98
FAEKGELRKSIFSESRKKTVSIME [P18K]	1.41
FAEKGELRKSIFSESRKYTVSIME [P18Y]	2.79
FAEKGELRKSIFSESRKFTVSIME [P18F]	2.31
FAEKGELRKSIFSESRKITVSIME [P18I]	2.06
FAEKGELRKSIFSESRKHTVSIME [P18H]	1.94
FAEKGELRKSIFSESRKRTVSIME [P18R]	2.32
FAEKGELRKSIFSESRKCTVSIME [P18C]	2.21
FAEKGELRKSIFSESRKPTVSIMT [E24T]	1.88
FAEKGELRKSIFSESRKPTVSIMP [E24P]	2.23
FAEKGELRKSIFSESRKPTVSIMF [E24F]	2.22
FAEKGELRKSIFSESRKPTVSIMN [E24N]	1.36
FAEKGELRKSIFSESRKPTVSIMC [E24C]	2.07
FAEKGELRKSIFSESRKPTVSIMW [E24W]	2.17
FAEKGELRKSIFSESRKPTVSIMM [E24M]	2.73

Variant	protein stability index
FAEKGELRKSIFSESRKPTVSIMG [E24G]	2.2
FAEKGELRKSIFSESRKPTVSIMK [E24K]	1.76
FAEKGELRKSIFSESRKPTVSIMH [E24H]	3.14
FAEKGELRKSIFSESRKPTVSIMI [E24I]	2.79
FAEKGELRKSIFSESRKPTVSIMY [E24Y]	2.54
FAEKGELRKSIFSESRKPTVSIML [E24L]	2.98
FAEKGELRKSIFSESRKPTVSIMS [E24S]	1.65
FAEKGELRKSIFSESRKPTVSIMV [E24V]	2.33
FAEKGELRKSIFSESRKPTVSIMD [E24D]	2.41
FAEKGELRKSIFSESRKPTVSIMR [E24R]	1.3
FAEKGELRKSIFSESRKPTVSIMQ [E24Q]	1.95
FAEKGELRKSIFSESRKPTVSIMA [E24A]	2.12
FAEKGELRKSIFSESRKPTVMIME [S21M]	2.61
FAEKGELRKSIFSESRKPTVAIME [S21A]	2.12
FAEKGELRKSIFSESRKPTVDIME [S21D]	1.65
FAEKGELRKSIFSESRKPTVEIME [S21E]	1.76
FAEKGELRKSIFSESRKPTVHIME [S21H]	1.31
FAEKGELRKSIFSESRKPTVKIME [S21K]	2.7
FAEKGELRKSIFSESRKPTVLIME [S21L]	2.05
FAEKGELRKSIFSESRKPTVPIME [S21P]	1.47
FAEKGELRKSIFSESRKPTVVIME [S21V]	2.17
FAEKGELRKSIFSESRKPTVTIME [S21T]	1.76
FAEKGELRKSIFSESRKPTVYIME [S21Y]	2.15
FAEKGELRKSIFSESRKPTVWIME [S21W]	2.55

Variant	protein stability index
FAEKGELRKSIFSESRKPTVCIME [S21C]	1.49
FAEKGELRKSIFSESRKPTVRIME [S21R]	2.19
FAEKGELRKSIFSESRKPTVFIME [S21F]	2.61
FAEKGELRKSIFSESRKPTVGIME [S21G]	1.95
FAEKGELRKSIFSESRKPTVNIME [S21N]	2.11
FAEKGELRKSIFSESRKPTVIIME [S21I]	3.09
FAEKGELRKSIFSESRKPTVQIME [S21Q]	3.18
FAEKGELRKSIFSESRKPTVSISE [M23S]	1.58
FAEKGELRKSIFSESRKPTVSINE [M23N]	2.38
FAEKGELRKSIFSESRKPTVSIFE [M23F]	1.6
FAEKGELRKSIFSESRKPTVSIEE [M23E]	1.56
FAEKGELRKSIFSESRKPTVSIHE [M23H]	2.56
FAEKGELRKSIFSESRKPTVSITE [M23T]	2.22
FAEKGELRKSIFSESRKPTVSIDE [M23D]	1.92
FAEKGELRKSIFSESRKPTVSIYE [M23Y]	2.2
FAEKGELRKSIFSESRKPTVSIQE [M23Q]	2.47
FAEKGELRKSIFSESRKPTVSICE [M23C]	2.16
FAEKGELRKSIFSESRKPTVSIRE [M23R]	2.22
FAEKGELRKSIFSESRKPTVSILE [M23L]	1.71
FAEKGELRKSIFSESRKPTVSIGE [M23G]	1.57
FAEKGELRKSIFSESRKPTVSIPE [M23P]	1.84
FAEKGELRKSIFSESRKPTVSIVE [M23V]	2.01
FAEKGELRKSIFSESRKPTVSIKE [M23K]	1.66
FAEKGELRKSIFSESRKPTVSIWE [M23W]	2.21

Variant	protein stability index
FAEKGELRKSIFSESRKPTVSIIE [M23I]	1.49
FAEKGELRKSIFSESRKPTVSIAE [M23A]	1.47
FAEKGELRKSIFSESRKPTVSQME [I22Q]	1.55
FAEKGELRKSIFSESRKPTVSCME [I22C]	2.68
FAEKGELRKSIFSESRKPTVSNME [I22N]	1.74
FAEKGELRKSIFSESRKPTVSFME [I22F]	1.79
FAEKGELRKSIFSESRKPTVSWME [I22W]	1.67
FAEKGELRKSIFSESRKPTVSVME [I22V]	1.86
FAEKGELRKSIFSESRKPTVSSME [I22S]	1.78
FAEKGELRKSIFSESRKPTVSHME [I22H]	3.02
FAEKGELRKSIFSESRKPTVSRME [I22R]	1.34
FAEKGELRKSIFSESRKPTVSMME [I22M]	1.49
FAEKGELRKSIFSESRKPTVSLME [I22L]	2.17
FAEKGELRKSIFSESRKPTVSKME [I22K]	2.31
FAEKGELRKSIFSESRKPTVSAME [I22A]	2
FAEKGELRKSIFSESRKPTVSPME [I22P]	2.48
FAEKGELRKSIFSESRKPTVSTME [I22T]	2.04
FAEKGELRKSIFSESRKPTVSGME [I22G]	1.85
FAEKGELRKSIFSESRKPTVSYME [I22Y]	1.38
FAEKGELRKSIFSESRKPTVSEME [I22E]	2.06
FAEKGELRKSIFSESRKPTVSDME [I22D]	1.99

Reference: the supplement of paper PMC10567573
